Laboratory results from patent US20240109962A1 (SPARX BIOSCIENCE, published 2024).

B1: Antibody 2E1_FH2 (antibody, V domains shown)
VH: EVQLVESGGGLVQPGGSLRLSCAVSGYSITSGYYWNWIRQAPGKGLEWVASISYDGNNNYNPSLKNRFTISRDTSKNTFYLQMNSLRAEDTAVYYCAREESTMITTAWFAYWGQGTLVTVSS
VL: DIQMTQSPSSLSASVGDRVTITCRASENIYSNLAWYQQKPGKAPKLLIYGATNLASGVPSRFSGSGSGTDYTLTISSLQPEDFATYYCQHFWDTPYTFGQGTKVEIK
B2: Antibody 2E1_GB1 (antibody, V domains shown)
VH: EVQLVESGGGLVQPGGSLRLSCAVSGYSITSGYSWNWIRQAPGKGLEWVAYISYDGNNNYNPSLKNRFTISRDTSKNTFYLQMNSLRAEDTAVYYCAREESTMITTAWFAYWGQGTLVTVSS
VL: DIQMTQSPSSLSASVGDRVTITCRASENIYSNLAWYQQKPGKAPKLLIYGATNLASGVPSRFSGSGSGTDYTLTISSLQPEDFATYYCQHFWDTPYTFGQGTKVEIK
B3: Antibody 2E1_FH9 (antibody, V domains shown)
VH: EVQLVESGGGLVQPGGSLRLSCAVSGYSITSGYYWNWIRQAPGKGLEWVAYISYDGNNLYNPSLKNRFTISRDTSKNTFYLQMNSLRAEDTAVYYCAREESTMITTAWFAYWGQGTLVTVSS
VL: DIQMTQSPSSLSASVGDRVTITCRASENIYSNLAWYQQKPGKAPKLLIYGATNLASGVPSRFSGSGSGTDYTLTISSLQPEDFATYYCQHFWDTPYTFGQGTKVEIK
B4: Antibody 2E1_GB11 (antibody, V domains shown)
VH: EVQLVESGGGLVQPGGSLRLSCAVSGYSITSGYYWNWIRQAPGKGLEWVAYISYDGNNNYNPSLKNRFTISRDTSKNTFYLQMNSLRAEDTAVYYCAREESTMITTAWFAYWGQGTLVTVSS
VL: DIQMTQSPSSLSASVGDRVTITCRASENIYSNLAWYQQKPGKAPKLLIYGATNLALGVPSRFSGSGSGTDYTLTISSLQPEDFATYYCQHFWDTPYTFGQGTKVEIK
B5: Antibody 2E1_GF9 (antibody, V domains shown)
VH: EVQLVESGGGLVQPGGSLRLSCAVSGYSITSGYSWNWIRQAPGKGLEWVAYISYDGNNNYNPSLKNRFTISRDTSKNTFYLQMNSLRAEDTAVYYCAREESTMITTAWFAYWGQGTLVTVSS
VL: DIQMTQSPSSLSASVGDRVTITCRASETIYSNLAWYQQKPGKAPKLLIYGATNLAAGVPSRFSGSGSGTDYTLTISSLQPEDFATYYCQHFWDTPYTFGQGTKVEIK
B6: Antibody 2E1_GD9 (antibody, V domains shown)
VH: EVQLVESGGGLVQPGGSLRLSCAVSGYSITSGYYWNWIRQAPGKGLEWVAYISYDGNNNYNPSLKNRFTISRDTSKNTFYLQMNSLRAEDTAVYYCAREESTMITTAWFAYWGQGTLVTVSS
VL: DIQMTQSPSSLSASVGDRVTITCRASENIFSNLAWYQQKPGKAPKLLIYGATNLASGVPSRFSGSGSGTDYTLTISSLQPEDFATYYCQHFWDTPYTFGQGTKVEIK
B7: Antibody 2E1_GE11 (antibody, V domains shown)
VH: EVQLVESGGGLVQPGGSLRLSCAVSGYSITSGYSWNWIRQAPGKGLEWVAYISYDGNNNYNPSLKNRFTISRDTSKNTFYLQMNSLRAEDTAVYYCAREESTMITTAWFAYWGQGTLVTVSS
VL: DIQMTQSPSSLSASVGDRVTITCGASENIYSNLAWYQQKPGKAPKLLIYGATELASGVPSRFSGSGSGTDYTLTISSLQPEDFATYYCQHFWDTPYTFGQGTKVEIK

Columns and labels:
[1] = target: T1, recombinant human LILRB2 protein (human, UniProt Q8N423 22-460, limits assumed); experiment: ELISA, coated recombinant human LILRB2; design: unit not given here
T1 construct: also called recombinant LILRB2 protein
T1 sequence (Q8N423 22-460 limits assumed): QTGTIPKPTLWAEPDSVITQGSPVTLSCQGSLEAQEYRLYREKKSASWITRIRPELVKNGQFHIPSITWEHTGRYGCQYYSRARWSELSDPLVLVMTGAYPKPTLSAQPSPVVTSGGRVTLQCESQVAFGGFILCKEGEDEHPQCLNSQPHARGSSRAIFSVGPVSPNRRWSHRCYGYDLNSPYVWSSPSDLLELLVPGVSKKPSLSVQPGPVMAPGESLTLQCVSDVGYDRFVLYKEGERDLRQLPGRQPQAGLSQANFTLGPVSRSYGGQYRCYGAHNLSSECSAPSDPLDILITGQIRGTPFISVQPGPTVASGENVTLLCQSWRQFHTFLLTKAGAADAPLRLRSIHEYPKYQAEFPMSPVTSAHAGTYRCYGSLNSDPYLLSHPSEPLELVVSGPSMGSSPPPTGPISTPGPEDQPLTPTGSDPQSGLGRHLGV
Experimental: This affinity maturation library was screened against human LILRB2 to identify antibodies having high binding affinity to LILRB2. Briefly, an ELISA plate was coated with 0.1 ug/well recombinant human LILRB2 protein. Serial diluted maturated h#2E1 antibodies were incubated in the LILRB2 coated plate for 2 hrs. The plate was washed and a secondary HRP-labeled anti-human IgG was then added to each well. After being incubated at room temperature for 1 hour, the colorimetric ELISA signals were developed by adding the TMB substrate and reaction was stopped by 1M H3PO4. Table 7 below provides binding activities of exemplary matured antibodies to recombinant LILRB2 protein.

[2] = target: T2, human LILRB2 expressed on cells (293T-LILRB2, CHO-K1-LILRB2) (human, UniProt Q8N423 22-597); experiment: flow cytometry, 293T-LILRB2 cells
T2 construct: whole, on cells; the cell line is named under assay; also called HEK293T-LILRB2
T2 sequence (Q8N423 22-597): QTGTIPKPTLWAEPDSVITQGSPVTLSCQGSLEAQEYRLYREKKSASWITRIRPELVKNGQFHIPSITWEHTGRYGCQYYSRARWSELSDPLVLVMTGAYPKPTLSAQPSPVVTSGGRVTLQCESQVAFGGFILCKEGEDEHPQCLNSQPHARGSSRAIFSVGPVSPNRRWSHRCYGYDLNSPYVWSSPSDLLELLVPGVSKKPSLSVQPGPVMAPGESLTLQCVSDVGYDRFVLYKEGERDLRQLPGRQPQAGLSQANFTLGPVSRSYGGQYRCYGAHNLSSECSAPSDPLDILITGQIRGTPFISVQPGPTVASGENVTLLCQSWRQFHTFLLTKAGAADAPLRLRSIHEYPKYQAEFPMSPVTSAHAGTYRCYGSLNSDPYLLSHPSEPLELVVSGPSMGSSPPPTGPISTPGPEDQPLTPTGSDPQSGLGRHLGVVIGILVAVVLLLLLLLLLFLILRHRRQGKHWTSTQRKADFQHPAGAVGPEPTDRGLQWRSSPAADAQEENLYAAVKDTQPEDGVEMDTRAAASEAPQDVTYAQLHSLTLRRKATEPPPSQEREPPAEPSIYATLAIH
Excerpt: The fluorescent signals were detected by flow cytometry.

[3] = target: T2, human LILRB2 expressed on cells …; experiment: flow cytometry, His-HLA-A2 tetramer (competitor) bound to 293T-LILRB2 cells, relative to no antibody; design: concentration or dose not given beside the values
Experimental: Serial diluted h#2E1 antibodies were then added to the mixture and incubated at room temperature for another 45 minutes. […]

[4] = target: T2, human LILRB2 expressed on cells …; experiment: flow cytometry, blockade of His-tagged HLA-G tetramer binding to 293T-LILRB2 cells; fit table under the graph
Experimental: Serial diluted humanized LILRB2 antibodies were then added to the mixture and incubated at room temperature for another 45 minutes. The binding of HLA-G/LILRB2 was detected afterwards using a secondary PE-labeled anti-His tag antibody via flow cytometry.

Bmax [1] | Bmax [2] | % no Ab [3] [%] | IC50 [4] [nM] | Span [4] [RFU] | Binder
0.989 | 420000 | 51.5 |  |  | B1
1.01 | 637000 | 50.9 |  |  | B2
1.24 | 684000 | 47.1 |  |  | B3
1.16 | 627000 | 50.1 | 0.59 | 8170 | B4
1.14 | 639000 | 46.2 |  |  | B5
1.39 | 724000 | 52.9 |  |  | B6
1.37 | 658000 | 46.2 |  |  | B7
